The source of these data is patent US7795390B2, “Biological substance nesfatin and its related substances and uses thereof” (Teijin Pharma Limited, priority 2005, dated 2010).

The subject of one data set is nesfatin-1. Kind of data set: Western blotting of nesfatin-1 in hypothalamus after antisense RNA administration (densitometry). Format: in vivo. The note with it: rat hypothalamus, day 12; control group 14.3±1.2 AU. As for the experimental part:
On day 12 after the start of administration, the individuals in each group were sacrificed, and the hypothalamus in the brain was removed. Using the sample extracted, the expression of nesfatin was confirmed by Western blotting with nesfatin-1 Ab. Western blotting was carried out in a manner similar to those described in Working Examples 13 and 12. The concentration of bands stained in Western blotting was determined by densitometry.

Data set [1] relates to Wistar rats. Kind of data set: Continuous intraventricular administration of nesfatin antisense RNA, food intake and body weight. Format: in vivo, rat. Here is the method: As the antisense RNA against nesfatin-1 gene, was used a morpholino RNA which sandwiches a translational start site, as follows.
The administration of nesfatin antisense RNA was carried out into the ventricle by an osmotic pump for 12 consecutive days using an osmotic pump. Among 8 week-old male Wistar rats (purchased from Nippon SLC), those individuals weighing 200-250 g were selected and used. The rats received intraperitoneal administration of 40 mg/kg body weight of pentobarbital sodium for anesthesia. After the hair was removed from the head, they were fixed in a brain stereotaxic apparatus (David Kopf Instruments, Model 962) and the scalp was incised and a 23G needle (guide cannula) was implanted so that the tip reaches the third ventricle (2.5 mm behind the bregma, 9.5 mm from the surface). One week after implanting the guide cannula, the animals were subjected to the experiment. The osmotic pump used was Alzet's Model 2002 that was primed in sterilized physiological saline from the day before use. Nesfatin antisense RNA (antisense administration group) dissolved in physiological saline that was filter-sterilized with 0.22 μm Millex GV filter, or missence RNA (ATcGTgCTCCACgTCATCTaCAcAG) sterilized in the same manner that dissolved in sterilized physiological saline (control group) were injected into the osmotic pump immediately before use. […] The measurement of the amount of food intake started from the day after the cannula and the osmotic pump were implanted, and the weight of the residual food was measured at 9 a.m. every day and, by determining the difference from the weight of the food on the previous day, the amount of food intake of the day (24 hours) was calculated. From day 6 after the start of administration, body weight was measured at the time of measuring the amount of food intake, and changes in body weight were also recorded.

For data set [2], the system named is Wistar rats. As to the kind of experiment: Administration of nesfatin-1, nesfatin-2, nesfatin-3, nesfatin-2/3 into the third ventricle, amount of food intake. Format: in vivo, rat. The note with it: given alone into the third ventricle (nesfatin-1 5 pmol; leptin 1 μg); vs saline control. As for the experimental part: Samples used for intracerebral administration were PBS alone (vehicle group), or nesfatin-1, nesfatin-2, nesfatin-3 or nesfatin-2/3 prepared in Working Example 10 each dissolved in PBS, and 25 pmol was administered per individual into the third ventricle immediately before the dark period. Rats used were Wistar rats (purchased from Nippon SLC) and were housed as in Working Example 6, and among 8-9 week-old male Wistar rats, those individuals weighing 200-250 g were selected and used (N=5). The technique of intraventricular administration and the measurement of the amount of food intake in rats were carried out in a method similar to those in Working Example 6. In the measurement of the amount of food intake, the reduced amount of food at 1 hour after administration (0-1 hr) and 2 hours after administration (1-3 hrs) was determined as food intake.
In the same condition above, 1, 5 or 25 pmol of nesfatin-1 as a sample was administered per rat individual into the third ventricle immediately before the dark period. In this experiment, the amount of food intake was determined at 1 hour after administration (0-1 hr).
The experimental condition was similar to that in Working Example 12, and 5 pmol of nesfatin-1 was administered into the third ventricle of the rat brain immediately before the start of the dark period, the amount decreased of the food (the amount of food intake) during 1 hour immediately after administration (0-1 hr), during 2 hours from 1 hour after the administration (1-3 hr), during 3 hours from 3 hours after the administration (3-6 hr), and during 6 hours from 6 hours after the administration (6-12 hr) was measured as the amount of food intake. As the control group, the amount of food intake by individuals that received physiological saline alone was measured.
The experimental condition was similar to that in Working Example 12, and for a group that received 5 pmol of nesfatin-1 alone into the third ventricle of the rat brain immediately before the start of the dark period and a group that received 5 pmol of nesfatin-1 and 8 μg of anti-nesfatin-1 antibody (nesfatin-1 IgG), the amount of food intake for 1 hour after administration was measured and compared to that for the control group (physiological saline alone was administered). Also, for a group that received only leptin (Rat leptin: R & D Systems, 598-LP-01M) (1 μg) which is known to have an activity of suppressing food intake by intraventricular administration and a group that received leptin and anti-nesfatin-1 antibody, its effect on food intake was also studied.

Data set [3] concerns Wistar rats. Kind of data set: Administration of recombinant nesfatin into the third ventricle, amount of food intake. Format: in vivo, rat. The note with it: for control activity of food intake: 1-3 hour and 3-6 hours. As for the experimental part:
Rats used were Wistar rats (purchased from Nippon SLC), and the animals were housed under a cycle of 12 hours of the light period from 6 a.m. to 6 p.m. and 12 hours of the dark period from 6 p.m. to 6 a.m. the next morning and fed a powder chew (Nippon Clea, CE-2), and kept at 22° C., and housing was continued under a similar condition during the experiment. For the experiment, among 8-9 week-old male Wistar rats, those individuals weighing 200-250 g were used. For administration, 5 μl of saline (control) or recombinant nesfatin prepared in Working Example 5 dissolved to 0.2 pmol, 0.6 pmol and 3.0 pmol in 5 μl of PBS was administered per individual (N=5 for each group). The rats received intraperitoneal administration of 40 mg/kg body weight of pentobarbital sodium for anesthesia. After the hair was removed from the head, they were fixed in a brain stereotaxic apparatus (David Kopf Instruments, Model 962) and the scalp was incised and a 23G needle (guide cannula) was implanted so as to reach the third ventricle (2.5 mm behind the bregma, 9.5 mm from the surface). One week after implanting the guide cannula, the animals were subjected to the experiment. After recovering from the surgery, a 29G cannula for injection was inserted into the guide cannula under no anesthesia, and 5 μl of PBS or the matured mouse nesfatin solution in PBS was administered at a rate of 1 μl/second. After fixing the cannula as it was for 2-3 minutes after the administration, the cannula was extracted, and the animals were returned to the individual cages. One, three, and six hours thereafter, the weight of the food was determined to record the amount of food intake, which was used as an index of feeding behavior. For the test of significant difference, analysis of variance was used.
The PCR product obtained was subjected to 1% agarose gel electrophoresis to excise an amplified band, which was purified with QIAEX-II kit (QIAGEN). The amplified DNA excised was cleaved with restriction enzymes SpeI and NotI, and ligated to pET41a(+) plasmid vector (Novagen) cleaved with restriction enzymes SpeI and NotI, using the Quick DNA ligase kit (New England Biolabs). From the cloned DNA, a clone, which has no errors in mutant portions introduced after analyzing DNA sequences in a similar manner to Working Example 5 and other nucleotide sequences, can be selected to obtain a vector for expressing the KR-AA mutant. The expression and purification were carried out in a similar manner to Working Example 5. The amino acid sequence of the KR-AA mutant obtained is set forth in SEQ ID NO: 61. Wt (normal nesfatin), which was prepared in Working Example 5, was used. 5 pmol each of the KR-AA mutant (Mut) peptide and the normal nesfatin (Wt) peptide were administered to the third ventricle of rats in a similar manner to Working Example 6. One, three, six and 12 hours thereafter, the weight of the food was determined to record the amount of food intake, which was used as an index of feeding behavior.
Also, in the same manner as in Working Example 6, after 5 pmol of nesfatin was administered into the rat ventricle, the amount of food intake was determined during 0-1 hour/1-3 hours/3-6 hours after the administration. The control group used was the one that only received physiological saline (0 pmol). For testing of significant difference, analysis of variance was used.

Setting [4] is: 5 pmol intraventricular, 0-1 hour.

Regarding “5-ATGGTCCTCCACCTCATCTTCAGAG-3 (all phosphorodiamidate morpholino (PMO)) [nesfatin antisense RNA]”, the “expression of nesfatin-1, band intensity by densitometry” value with nesfatin-1 came to 8.5±0.7 AU. For the same molecule, in the data set with Wistar rats [1] (40 μg, osmotic pump, third ventricle, 12 days, from day 1, vs missense RNA control), the “amount of food intake during 24 hours” value was “an increase in the amount of food intake”. Besides, the body weight entry in the data set with Wistar rats [1] (day 6 after the start of administration, vs missense RNA control) is recorded as “no difference”; in the data set on Wistar rats [1] (day 7 and after, P<0.05 vs missense RNA control), “significant increase in body weight”.

B1: recombinant nesfatin: recombinant matured mouse nesfatin (SEQ ID NO: 26) expressed in E. coli as GST fusion and cleaved with thrombin (protein)
chain: GSPIDVDKTKVHNTEPVENARIEPPDTGLYYDEYLKQVIEVLETDPHFREKLQKADIEEIRSGRLSQELDLVSHKVRTRLDELKRQEVGRLRMLIKAKLDALQDTGMNHHLLLKQFEHLNHQNPNTFESRDLDMLIKAATADLEQYDRTRHEEFKKYEMMKEHERREYLKTLSEEKRKEEESKFEEMKRKHEDHPKVNHPGSKDQLKEVWEETDGLDPNDFDPKTFFKLHDVNNDGFLDEQELEALFTRELEKVYNPQNAEDDMIEMEEERLRMREHVMSEIDNNKDRLVTLEEFLRATEKKEFLEPDSWETLDQQQLFTEDELKEYESIIAIQENELKKRAEELQKQKEDLQRQHDHLEAQKQEYHQAVQHLEQKKLQQGIAPSGPAGELKFEPHT
modifications: Chemically-synthesized nesfatin mutant protein
For the molecule B1, the “amount of food intake for 1 hour after administration” value in the data set with Wistar rats [2] is “significantly decreased”. In addition, the “amount of food intake” value with Wistar rats [3] (4 pmol or 20 pmol into the brain ventricle, 0-1 hour, p<0.01 vs 0 pmol) was “significantly reduced”; in the data set on Wistar rats [3] (5 pmol intraventricular, 0-1 hour (p<0.01), 1-3 hours (p<0.05) and 3-6 hours (p<0.001)), “significant reduction in the amount of food intake”; in the data set with Wistar rats [3] (5 pmol intraventricular, 6-12 hours), “no difference”; in the data set with Wistar rats [3] (20 pmol into the third ventricle, any of 0-1 hour/1-3 hours/3-6 hours, P<0.01 vs control) it was “significant activity of suppressing food intake”; in the data set with Wistar rats [3] (1, 4 and 20 pmol into the third ventricle, 0-1, 1-3 and 3-6 hours, vs saline), “reduction in the amount of food intake was noted in a dose dependent manner”. Also, in the data set on Wistar rats [3] (setting [4]), the “control activity of food intake” value is “a significant control activity of food intake was observed”.

B2: Mut: nesfatin mutant in which Lys-Arg at amino acid numbers 84 and 85 is replaced with Ala-Ala (SEQ ID NO: 61) (protein)
chain: GSPIDVDKTKVHNTEPVENARIEPPDTGLYYDEYLKQVIEVLETDPHFREKLQKADIEEIRSGRLSQELDLVSHKVRTRLDELAAQEVGRLRMLIKAKLDALQDTGMNHHLLLKQFEHLNHQNPNTFESRDLDMLIKAATADLEQYDRTRHEEFKKYEMMKEHERREYLKTLSEEKRKEEESKFEEMKRKHEDHPKVNHPGSKDQLKEVWEETDGLDPNDFDPKTFFKLHDVNNDGFLDEQELEALFTRELEKVYNPQNAEDDMIEMEEERLRMREHVMSEIDNNKDRLVTLEEFLRATEKKEFLEPDSWETLDQQQLFTEDELKEYESIIAIQENELKKRAEELQKQKEDLQRQHDHLEAQKQEYHQAVQHLEQKKLQQGIAPSGPAGELKFEPHT
modifications: Chemically-synthesized KR-AA mutant polypeptide
In the case of B2, in the data set with Wistar rats [3] (setting [4]), the “control activity of food intake” value is given as “no control activity of food intake was observed”.
